± gives the standard error. Variants at the floor of the assay were thinned out.
B1: glmS ribozyme (parent)
chain: AUAAAAGCGCCAGAACUACAGAAAUGUAGUUGACGAGGAGGAGGUUUAUCGAAUUUUCGGCGGAUGCCUCCAAA

How the values were obtained:
Conditions in all cases: with glucosamine-6-phosphate
[1] = variants of: B1; assay: self-cleavage kobs at 640 uM GlcN6P; higher = faster cleavage; RNA array
In short: (§1)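 Sequenced MiSeq chips were the platform: E. coli RNA polymerase transcribed barcoded ribozyme variants on them in situ, and a hybridised Cy3 probe tracked these at 37 °C. After glucosamine-6-phosphate (40 μM to 10 mM) in HEPES/KCl/Mg(OAc)2 buffer was flowed in, tiles were imaged over ~14 h. Signals normalised to baseline and to non-cleaving reference variants were reduced to per-tile medians and fit to one- or two-exponential decays to obtain kobs. kcat and KM were derived through weighted Michaelis–Menten fits across concentrations.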

[2] = variants of: B1; assay: self-cleavage kobs at 10000 uM GlcN6P; higher = faster cleavage; RNA array
In short: as §1

[3] = variants of: B1; assay: self-cleavage kobs at 2500 uM GlcN6P; higher = faster cleavage; RNA array
In short: as §1

| Variant | self-cleavage kobs at 640 uM GlcN6P [1] [s⁻¹] | self-cleavage kobs at 10000 uM GlcN6P [2] [s⁻¹] | self-cleavage kobs at 2500 uM GlcN6P [3] [s⁻¹] |
| --- | --- | --- | --- |
| A12C U46A G62C | < 1e-05 | – | – |
| G7U G40C U49A | < 1e-05 | – | – |
| G7A G43A U55A G60U C67U C70G | < 1e-05 | – | – |
| G9C G40C U49G | < 1e-05 | < 1e-05 | – |
| A12G G59C A64U | < 1e-05 | – | – |
| G7A A15U A33G A36U G38U U57C | < 1e-05 | – | < 1e-05 |
| G9C A12C C19A G51U U54G G63C C70G | < 1e-05 | – | < 1e-05 |
| C8A A33G C34A | < 1e-05 | – | – |
| U45G G60U G62C C70U | < 1e-05 | – | < 1e-05 |
| G9A C10A U30C | < 1e-05 | – | < 1e-05 |
| C11U U57G G63A | < 1e-05 | – | < 1e-05 |
| G38U C61A | < 1e-05 | – | – |
| C10G G35A A42C | < 1e-05 | – | < 1e-05 |
| U45G U46C C71U | 0.000925 ± 0.00024 | – | 0.00445 ± 0.001 |
| G41U G59U G63U | < 1e-05 | – | – |
| A6U G29U G32U A42G U47A C71G | < 1e-05 | – | < 1e-05 |
| A48U C58A C61G | < 1e-05 | – | – |
| C10G U54A C58G G62C C67G | 6.44e-05 ± 2.7e-05 | – | 6.02e-05 ± 2.4e-05 |
| A14G U47A G66C | 0.000364 ± 0.00011 | 0.00125 ± 0.00022 | 0.00101 ± 0.00023 |
| C11A C50G C61A | 0.000272 ± 7.9e-05 | – | 0.000188 ± 3.7e-05 |
| A6U A12U G13U U47A C70U | < 1e-05 | – | – |
| G43C G44U G60U | < 1e-05 | – | – |
| A52C G59A U69G | < 1e-05 | – | – |

| Variant | self-cleavage kobs at 640 uM GlcN6P [1] [s⁻¹] | self-cleavage kobs at 10000 uM GlcN6P [2] [s⁻¹] | self-cleavage kobs at 2500 uM GlcN6P [3] [s⁻¹] |
| --- | --- | --- | --- |
| G13U C61U C70G | < 1e-05 | – | – |
| U45A G51C G60A C71U | < 1e-05 | – | < 1e-05 |
| G44A U55A G59U | < 1e-05 | – | < 1e-05 |
| G29A C50U C68A | 4.21e-05 ± 1.6e-05 | – | – |
| A12G U30G G43C U46G | < 1e-05 | – | – |
| G7A G44C C50U | < 1e-05 | – | < 1e-05 |
| G13C G44C G60A | < 1e-05 | – | – |
| G60C C70A | < 1e-05 | < 1e-05 | – |
| C11G U30G A42U A53U G63U U65A C68G | < 1e-05 | – | – |
| A36C G51A C70G | 9.36e-05 ± 3.3e-05 | – | – |
| C16U G29U U31A | 0.00108 ± 0.00033 | – | 0.0037 ± 0.00095 |
| A14G G35U | < 1e-05 | – | < 1e-05 |
| G40C U65G | 9.16e-05 ± 3.6e-05 | 0.000854 ± 0.00025 | 0.00036 ± 0.00012 |
| U45C U47C | 0.000179 ± 5.5e-05 | – | 0.000515 ± 0.00013 |
| G13U C34G U45C U47A | < 1e-05 | – | < 1e-05 |
| A12G U30A A52C U54C | < 1e-05 | – | < 1e-05 |
| U65A G66A C71U | 0.000198 ± 4.2e-05 | – | 0.000397 ± 0.0001 |
| A52U A53C C71G | < 1e-05 | – | < 1e-05 |
| A6U G51C U56A U69G C70A | 0.000269 ± 8e-05 | – | – |
| G13C G37U G60U | < 1e-05 | – | – |
| A48C U49G | < 1e-05 | < 1e-05 | – |
| G32U G38U | < 1e-05 | – | < 1e-05 |
| G7U U30A G51A | < 1e-05 | – | – |

| Variant | self-cleavage kobs at 640 uM GlcN6P [1] [s⁻¹] | self-cleavage kobs at 10000 uM GlcN6P [2] [s⁻¹] | self-cleavage kobs at 2500 uM GlcN6P [3] [s⁻¹] |
| --- | --- | --- | --- |
| G43A U46G C70G | < 1e-05 | – | < 1e-05 |
| A33U U45G U47A C67A C68G | < 1e-05 | – | < 1e-05 |
| U31C G35C G38U | < 1e-05 | – | – |
| C11U G41U A48G | < 1e-05 | – | – |
| A14U A15U G35A A39C G40U | < 1e-05 | – | – |
| A12U G62U | < 1e-05 | < 1e-05 | – |
| G29U G37U G51C C68U C71G | 4.89e-05 ± 1.7e-05 | – | – |
| A39C A52C C71A | < 1e-05 | – | < 1e-05 |
| G26U G60A C68A | 9.37e-05 ± 4.6e-05 | – | – |
| A12U G59C U69A | 0.00122 ± 0.00048 | – | – |
| C34A C61U U65C U69G | < 1e-05 | – | – |
| G32C A33G A42U U45G U57C A64C C71A | < 1e-05 | – | < 1e-05 |
| G32C G44C A48C C67G | < 1e-05 | – | < 1e-05 |
| A39G C67G C68G | 9.65e-05 ± 2.5e-05 | – | 7.78e-05 ± 1.7e-05 |
| G29U A48U A53U G63A | < 1e-05 | – | < 1e-05 |
| G35A U46G A48G C68A C71U | < 1e-05 | – | < 1e-05 |
| G35A U45G U57C | < 1e-05 | – | – |
| C10G G38A C58G A64C | 0.000102 ± 4.5e-05 | – | – |
| C10A A12C G43A C67U C70G | < 1e-05 | – | < 1e-05 |
| A15U C16A A52U A53C | < 1e-05 | – | < 1e-05 |
| G7U U31C C50G | 0.000324 ± 0.00016 | – | – |
